According to patent US20190321401A1 (JUNO THERAPEUTICS, published 2019):

Legend:
[1] = molecular target: T1, HPV 16 E7 peptide on HLA-A*02:01 (human); assay: multimer staining
T1 peptide: YMLDLQPET

[2] = molecular target: T2, HPV 16 E6 peptide on HLA-A*02:01 (human); assay: multimer staining
T2 peptide: TIHDIILECV

[3] = molecular target: T3, HPV 16 E7(11-19), single-substitution variant Y1M (synthetic scanning library) peptide on HLA-A*02:01 (human); assay: activation reporter or marker
T3 peptide: MMLDLQPET

[4] = molecular target: T4, HPV 16 E7(11-19), single-substitution variant Y1F (synthetic scanning library) peptide on HLA-A*02:01 (human); assay: activation reporter or marker
T4 peptide: FMLDLQPET

[5] = molecular target: T5, HPV 16 E7(11-19), single-substitution variant Y1T (synthetic scanning library) peptide on HLA-A*02:01 (human); assay: activation reporter or marker
T5 peptide: TMLDLQPET

[6] = molecular target: T6, HPV 16 E7(11-19), single-substitution variant Y1W (synthetic scanning library) peptide on HLA-A*02:01 (human); assay: activation reporter or marker
T6 peptide: WMLDLQPET

[7] = molecular target: T7, HPV 16 E7(11-19), single-substitution variant M2Q (synthetic scanning library) peptide on HLA-A*02:01 (human); assay: activation reporter or marker
T7 peptide: YQLDLQPET

[8] = molecular target: T8, HPV 16 E7(11-19), single-substitution variant M2L (synthetic scanning library) peptide on HLA-A*02:01 (human); assay: activation reporter or marker
T8 peptide: YLLDLQPET

[9] = molecular target: T9, HPV 16 E7(11-19), single-substitution variant L3I (synthetic scanning library) peptide on HLA-A*02:01 (human); assay: activation reporter or marker
T9 peptide: YMIDLQPET

[10] = molecular target: T10, HPV 16 E7(11-19), single-substitution variant D4N (synthetic scanning library) peptide on HLA-A*02:01 (human); assay: activation reporter or marker
T10 peptide: YMLNLQPET

[11] = molecular target: T11, HPV 16 E7(11-19), single-substitution variant D4C (synthetic scanning library) peptide on HLA-A*02:01 (human); assay: activation reporter or marker
T11 peptide: YMLCLQPET

[12] = molecular target: T12, HPV 16 E7(11-19), single-substitution variant Q6H (synthetic scanning library) peptide on HLA-A*02:01 (human); assay: activation reporter or marker
T12 peptide: YMLDLHPET

[13] = molecular target: T13, HPV 16 E7(11-19), single-substitution variant P7C (synthetic scanning library) peptide on HLA-A*02:01 (human); assay: activation reporter or marker
T13 peptide: YMLDLQCET

[14] = molecular target: T14, HPV 16 E7(11-19), single-substitution variant E8A (synthetic scanning library) peptide on HLA-A*02:01 (human); assay: activation reporter or marker
T14 peptide: YMLDLQPAT

[15] = molecular target: T15, HPV 16 E7(11-19), single-substitution variant E8N (synthetic scanning library) peptide on HLA-A*02:01 (human); assay: activation reporter or marker
T15 peptide: YMLDLQPNT

[16] = molecular target: T16, HPV 16 E7(11-19), single-substitution variant E8D (synthetic scanning library) peptide on HLA-A*02:01 (human); assay: activation reporter or marker
T16 peptide: YMLDLQPDT

[17] = molecular target: T17, HPV 16 E7(11-19), single-substitution variant E8G (synthetic scanning library) peptide on HLA-A*02:01 (human); assay: activation reporter or marker
T17 peptide: YMLDLQPGT

[18] = molecular target: T18, HPV 16 E7(11-19), single-substitution variant E8H (synthetic scanning library) peptide on HLA-A*02:01 (human); assay: activation reporter or marker
T18 peptide: YMLDLQPHT

[19] = molecular target: T19, HPV 16 E7(11-19), single-substitution variant E8I (synthetic scanning library) peptide on HLA-A*02:01 (human); assay: activation reporter or marker
T19 peptide: YMLDLQPIT

[20] = molecular target: T20, HPV 16 E7(11-19), single-substitution variant E8K (synthetic scanning library) peptide on HLA-A*02:01 (human); assay: activation reporter or marker
T20 peptide: YMLDLQPKT

[21] = molecular target: T21, HPV 16 E7(11-19), single-substitution variant E8M (synthetic scanning library) peptide on HLA-A*02:01 (human); assay: activation reporter or marker
T21 peptide: YMLDLQPMT

[22] = molecular target: T22, HPV 16 E7(11-19), single-substitution variant E8P (synthetic scanning library) peptide on HLA-A*02:01 (human); assay: activation reporter or marker
T22 peptide: YMLDLQPPT

[23] = molecular target: T23, HPV 16 E7(11-19), single-substitution variant E8S (synthetic scanning library) peptide on HLA-A*02:01 (human); assay: activation reporter or marker
T23 peptide: YMLDLQPST

[24] = molecular target: T24, HPV 16 E7(11-19), single-substitution variant E8T (synthetic scanning library) peptide on HLA-A*02:01 (human); assay: activation reporter or marker
T24 peptide: YMLDLQPTT

[25] = molecular target: T25, HPV 16 E7(11-19), single-substitution variant E8W (synthetic scanning library) peptide on HLA-A*02:01 (human); assay: activation reporter or marker
T25 peptide: YMLDLQPWT

[26] = molecular target: T26, HPV 16 E7(11-19), single-substitution variant T9I (synthetic scanning library) peptide on HLA-A*02:01 (human); assay: activation reporter or marker
T26 peptide: YMLDLQPEI

[27] = molecular target: T27, HPV 16 E7(11-19), single-substitution variant T9L (synthetic scanning library) peptide on HLA-A*02:01 (human); assay: activation reporter or marker
T27 peptide: YMLDLQPEL

[28] = molecular target: T28, HPV 16 E7(11-19), single-substitution variant T9M (synthetic scanning library) peptide on HLA-A*02:01 (human); assay: activation reporter or marker
T28 peptide: YMLDLQPEM

[29] = molecular target: T29, HPV 16 E7(11-19), single-substitution variant T9F (synthetic scanning library) peptide on HLA-A*02:01 (human); assay: activation reporter or marker
T29 peptide: YMLDLQPEF

[30] = molecular target: T30, HPV 16 E7(11-19), single-substitution variant T9V (synthetic scanning library) peptide on HLA-A*02:01 (human); assay: activation reporter or marker
T30 peptide: YMLDLQPEV

B1: TCR 57 (TCR, V domains shown)
Valpha: TQLLEQSPQFLSIQEGENLTVYCNSSSVFSSLQWYRQEPGEGPVLLVTVVTGGEVKKLKRLTFQFGDARKDSSLHITAAQPGDTGLYLCAGARNFNKFYFGSGTKLNVKP
Vbeta: GAVVSQHPSWVICKSGTSVKIECRSLDFQATTMFWYRQFPKQSLMLMATSNEGSKATYEQGVEKDKFLINHASLTLSTLTVTSAHPEDSSFYICSARSWRGGLEQFFGPGTRLTVL
binding result [1]: recognises | binding result [2]: no recognition | binding result [3]: recognises | binding result [4]: recognises | binding result [5]: recognises | binding result [6]: recognises | binding result [7]: recognises | binding result [8]: recognises | binding result [9]: recognises | binding result [10]: recognises | binding result [11]: recognises | binding result [12]: recognises | binding result [13]: recognises | binding result [14]: recognises | binding result [15]: recognises | binding result [16]: recognises | binding result [17]: recognises | binding result [18]: recognises | binding result [19]: recognises | binding result [20]: recognises | binding result [21]: recognises | binding result [22]: recognises | binding result [23]: recognises | binding result [24]: recognises | binding result [25]: recognises | binding result [26]: recognises | binding result [27]: recognises | binding result [28]: recognises | binding result [29]: recognises | binding result [30]: recognises
